PMC6331642

B1: Atox1 copper chaperone (protein)
chain: MPKHEFSVDMTCGGCAEAVSRVLNKLGGVKYDIDLPNKKVCIESEHSMDTLLATLKKTGKTVSYLGLE
B2: WLN4, the fourth metal-binding domain of Wilson's disease protein (ATP7B) (protein)
chain: TCSTTLIAIAGMTCASCVHSIEGMISQLEGVQQISVSLAEGTATVLYNPSVISPEELRAAIEDMGFEASVVS

What was measured:
O00244 [1] = experiment: SEC-MALS; Cu-Atox1 after reaction with TM, with 4.5 mM reducing agents
O00244 [2] = experiment: SEC-MALS; apo-Atox1 after reaction with TM, with 4.5 mM reducing agents
P35670 [3] = experiment: SEC-MALS; Cu-WLN4 after incubation with TM; Superdex 75 10/300 GL, 50 mM MES pH 6.0, 150 mM NaCl, room temperature
P35670 [4] = experiment: SEC-MALS; apo-WLN4 after incubation with TM; Superdex 75 10/300 GL, 50 mM MES pH 6.0, 150 mM NaCl, room temperature

Protein	N with TM (O00244 [1])	N with TM (O00244 [2])	N with TM (P35670 [3])	N with TM (P35670 [4])
B1	both apo-Atox1 and Cu-Atox1 generated dimeric adducts following reaction with TM	both apo-Atox1 and Cu-Atox1 generated dimeric adducts following reaction with TM		
B2			2	2
